These results are taken from US20240197919A1 (CALIFORNIA INSTITUTE OF TECHNOLOGY, published 2024).

For the assay, the target named is T1, Ly6a-Fc fusion protein (murine, UniProt P05533 27-112).
T1 construct: Captured on a protein A sensor chip for SPR; also called Ly6a-Fc protein; not shown: Fc part
T1 sequence: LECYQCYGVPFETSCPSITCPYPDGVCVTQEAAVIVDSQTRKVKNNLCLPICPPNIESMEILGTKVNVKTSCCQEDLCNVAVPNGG
Nature of the assay: SPR, Ly6a-Fc captured on protein A chip, rAAV injected as analyte. In general terms: Surface plasmon resonance follows binding to a sensor surface in real time, without labels.

B1: AAV-X1 (other)
chain: MAADGYLPDWLEDNLSEGIREWWALKPGAPQPKANQQHQDNARGLVLPGYKYLGPGNGLDKGEPVNAADAAALEHDKAYDQQLKAGDNPYLKYNHADAEFQERLKEDTSFGGNLGRAVFQAKKRLLEPLGLVEEAAKTAPGKKRPVEQSPQEPDSSAGIGKSGAQPAKKRLNFGQTGDTESVPDPQPIGEPPAAPSGVGSLTMASGGGAPVADNNEGADGVGSSSGNWHCDSQWLGDRVITTSTRTWALPTYNNHLYKQISNSTSGGSSNDNAYFGYSTPWGYFDFNRFHCHFSPRDWQRLINNNWGFRPKRLNFKLFNIQVKEVTDNNGVKTIANNLTSTVQVFTDSDYQLPYVLGSAHEGCLPPFPADVFMIPQYGYLTLNDGSQAVGRSSFYCLEYFPSQMLRTGNNFQFSYEFENVPFHSSYAHSQSLDRLMNPLIDQYLYYLSRTINGSGQNQQTLKFSVAGPSNMAVQGRNYIPGPSYRQQRVSTTVTQNNNSEFAWPGASSWALNGRNSLMNPGPAMASHKEGEDRFFPLSGSLIFGKQGTGRDNVDADKVMITNEEEIKTTNPVATESYGQVATNHQSAQGNNTRSVAQAQTGWVQNQGILPGMVWQDRDVYLQGPIWAKIPHTDGNFHPSPLMGGFGMKHPPPQILIKNTPVPADPPTAFNKDKLNSFITQYSTGQVSVEIEWELQKENSKRWNPEIQYTSNYYKSNNVEFAVNTEGVYSEPRPIGTRYLTRNL
notes: Tested as an assembled rAAV particle; also called AAV-CAP.X1
Regarding B1, the binding result was “no binding”.

B2: AAV-X1.1 (other)
chain: MAADGYLPDWLEDNLSEGIREWWALKPGAPQPKANQQHQDNARGLVLPGYKYLGPGNGLDKGEPVNAADAAALEHDKAYDQQLKAGDNPYLKYNHADAEFQERLKEDTSFGGNLGRAVFQAKKRLLEPLGLVEEAAKTAPGKKRPVEQSPQEPDSSAGIGKSGAQPAKKRLNFGQTGDTESVPDPQPIGEPPAAPSGVGSLTMASGGGAPVADNNEGADGVGSSSGNWHCDSQWLGDRVITTSTRTWALPTYNNHLYKQISNSTSGGSSNDNAYFGYSTPWGYFDFNRFHCHFSPRDWQRLINNNWGFRPKRLNFKLFNIQVKEVTDNNGVKTIANNLTSTVQVFTDSDYQLPYVLGSAHEGCLPPFPADVFMIPQYGYLTLNDGSQAVGRSSFYCLEYFPSQMLRTGNNFQFSYEFENVPFHSSYAHSQSLDRLMNPLIDQYLYYLSRTIDGAATKNQTLKFSVAGPSNMAVQGRNYIPGPSYRQQRVSTTVTQNNNSEFAWPGASSWALNGRNSLMNPGPAMASHKEGEDRFFPLSGSLIFGKQGTGRDNVDADKVMITNEEEIKTTNPVATESYGQVATNHQSAQGNNTRSVAQAQTGWVQNQGILPGMVWQDRDVYLQGPIWAKIPHTDGNFHPSPLMGGFGMKHPPPQILIKNTPVPADPPTAFNKDKLNSFITQYSTGQVSVEIEWELQKENSKRWNPEIQYTSNYYKSNNVEFAVNTEGVYSEPRPIGTRYLTRNL
notes: Tested as an assembled rAAV particle; also called AAV9-X1.1
Consider B2, for which the binding result is “no binding”.
